The numbers were not newly measured in publication PMC6815250, which cites them from elsewhere.

pKi: −log10 of the molar value.

The target of the series is RgpB pro-fragment pro-fragment (Porphyromonas gingivalis) (UniProt P95493).

Sequence of RgpB (P95493 230-736): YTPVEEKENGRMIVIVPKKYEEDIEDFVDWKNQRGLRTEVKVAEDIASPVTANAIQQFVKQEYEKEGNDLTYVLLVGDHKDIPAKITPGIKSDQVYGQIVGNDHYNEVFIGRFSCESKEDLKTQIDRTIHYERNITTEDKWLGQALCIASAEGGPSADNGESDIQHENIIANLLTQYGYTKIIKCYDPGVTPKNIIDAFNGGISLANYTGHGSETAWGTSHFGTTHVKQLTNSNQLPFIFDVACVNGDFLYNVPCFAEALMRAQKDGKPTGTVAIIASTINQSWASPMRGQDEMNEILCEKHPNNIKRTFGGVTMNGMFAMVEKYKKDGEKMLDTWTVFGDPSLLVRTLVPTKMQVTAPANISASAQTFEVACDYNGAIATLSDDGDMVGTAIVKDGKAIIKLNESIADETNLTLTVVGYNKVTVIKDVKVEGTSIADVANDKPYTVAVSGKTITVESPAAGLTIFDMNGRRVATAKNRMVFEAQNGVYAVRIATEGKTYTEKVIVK

A word on the pKi: it is the negative decadic logarithm of the Ki, by convention in mol/L. In the case of RgpB (from UniProt P95493), the pKi was 8.20.
